Paper PMC10922747 (Cell, 2024)

How the values were obtained:
cryo-EM structure = biological target: the molecule itself; assay: cryo-EM structure
negative-stain EM = biological target: the molecule itself; assay: negative-stain EM

B1: mouse PNMA2 (mPNMA2) protein (full length) (natural protein, UniProt Q8BHK0 1-365, looked up)
chain: MAVALLEEWCKIMGVDVQKSLLVVDIPVDCGEPEIQTVLQEALKCVGSYRLLGKIFQKQDNTSVVLVELMEDTDMSVVPSEVQGKGGVWKVIFKTPNQDTEFLQRLNLFLEKEGQTVAGMFRALKHEGVSPATPPCTSPELLAHLTGQAMVHGQRPLLPVKYCKMRIFSGSTAAAPEEEPFEVWLEQATEIAKEWPIPEAEKKRWVAESLRGPALDLMHIVQADNPSISVGECLEAFKQVFGSTESRRTSQVKYLRTYQQEGEKISAYVLRLETLLRRAVEKRAIPRNIADQVRLEQVMAGANLGNVLWCRLQELKDQGPLPTFLQLMKVIREEEEEEDAYFEQESREEPGEREGSGCWNNSRNN
stoichiometry N (cryo-EM structure): 60

B2: human PNMA2 (hPNMA2) protein (full length) (natural protein, UniProt Q9UL42 1-364, looked up)
chain: MALALLEDWCRIMSVDEQKSLMVTGIPADFEEAEIQEVLQETLKSLGRYRLLGKIFRKQENANAVLLELLEDTDVSAIPSEVQGKGGVWKVIFKTPNQDTEFLERLNLFLEKEGQTVSGMFRALGQEGVSPATVPCISPELLAHLLGQAMAHAPQPLLPMRYRKLRVFSGSAVPAPEEESFEVWLEQATEIVKEWPVTEAEKKRWLAESLRGPALDLMHIVQADNPSISVEECLEAFKQVFGSLESRRTAQVRYLKTYQEEGEKVSAYVLRLETLLRRAVEKRAIPRRIADQVRLEQVMAGATLNQMLWCRLRELKDQGPPPSFLELMKVIREEEEEEASFENESIEEPEERDGYGRWNHEGDD
binding result (negative-stain EM): binds
